Measured values: US20220324969A1 (MYTHIC THERAPEUTICS, published 2022)
Residue numbers refer to the chain shown, from its start. Names may count otherwise.

B1: MYT1342 (antibody, V domains shown)
VH: QVQLVQSGAEVKKPGASVKVSCKASGYTFTNYHINWVRQAPGQGLEWIGWIYPGDGSTKYNEKFKAKATLTADTSTSTAYMELRSLRSDDTAVYYCASGYEDAMDYWGQGTTVTVSS
VL: DIQMTQSPSSLSASVGDRVTINCKASQDINSYLSWFQQKPGKAPKTLIYRANRLVDGVPSRFSGSGSGQDYTLTISSLQPEDFATYYCLQYDEFPLTFGGGTKVEIK
notes: IgG; vadastuximab VH variant #8 (D33H)
B2: MYT1362 (antibody, V domains shown)
VH: B1 VH with H33D, A97H
VL: B1 VL
notes: IgG; vadastuximab VH variant #28 (A97H)
B3: MYT1344 (antibody, V domains shown)
VH: B1 VH with H33D, N35H
VL: B1 VL
notes: IgG; vadastuximab VH variant #10 (N35H)
B4: MYT2633 (antibody, V domains shown)
VH: QVQLQQPGAEVVKPGASVKMSCKASGYTFTSYYIHWIKQTPGQGLEWVGVIYPGNDDISYNQKFQGKATLTADKSSTTAYMQLSSLTSEDSAVYYCAREVRLRYFDVWGQGTTVTVSS
VL: EIVLTQSPGSLAVSPGERVTMSCKSSQSVFFSSSQKNYLHWYQQIPGQSPRLLIYWASTRESGVPDRFTGSGSGTDFTLTISSVQPEDLAIYYCHQYLSSRTFGQGTKLEIK
notes: IgG; IMGN779 VL variant #17 (A40H)
B5: MYT0482 (antibody, V domains shown)
VH: EVQLVQSGAEVKKPGSSVKVSCKASHYTITDSNIHWVRQAPGQSLEWIGYIYPYNGGTDYNQKFKNRATLTVDNPTNTAYMELSSLRSEDTDFYYCVNGNPWLAYWGQGTLVTVSS
VL: DIQLTQSPSTLSASVGDRVTITCRASESLDNYGIRFLTWFQQKPGKAPKLLMYAASNQGSGVPSRFSGSGSGTEFTLTISSLQPDDFATYYCQQTKEVPWSFGQGTKVEVK
notes: IgG; gemtuzumab VH variant #1 (G26H)
B6: MYT0504 (antibody, V domains shown)
VH: B5 VH with H26G, Q62H
VL: B5 VL
notes: IgG; gemtuzumab VH variant #23 (Q62H)
B7: MYT0508 (antibody, V domains shown)
VH: B5 VH with H26G, N66H
VL: B5 VL
notes: IgG; gemtuzumab VH variant #27 (N66H)
B8: MYT0494 (antibody, V domains shown)
VH: B5 VH with H26G, Y52H
VL: B5 VL
notes: IgG; gemtuzumab VH variant #13 (Y52H)
B9: MYT0502 (antibody, V domains shown)
VH: B5 VH with H26G, Y60H
VL: B5 VL
notes: IgG; gemtuzumab VH variant #21 (Y60H)
B10: MYT0484 (antibody, V domains shown)
VH: B5 VH with H26G, T28H
VL: B5 VL
notes: IgG; gemtuzumab VH variant #3 (T28H)
B11: MYT0499 (antibody, V domains shown)
VH: B5 VH with H26G, G57H
VL: B5 VL
notes: IgG; gemtuzumab VH variant #18 (G57H)
B12: MYT0490 (antibody, V domains shown)
VH: B5 VH with H26G, I34H
VL: B5 VL
notes: IgG; gemtuzumab VH variant #9 (I34H)
B13: MYT0507 (antibody, V domains shown)
VH: B5 VH with H26G, K65H
VL: B5 VL
notes: IgG; gemtuzumab VH variant #26 (K65H)
B14: MYT0497 (antibody, V domains shown)
VH: B5 VH with H26G, N55H
VL: B5 VL
notes: IgG; gemtuzumab VH variant #16 (N55H)
B15: MYT0510 (antibody, V domains shown)
VH: B5 VH with H26G, N98H
VL: B5 VL
notes: IgG; gemtuzumab VH variant #29 (N98H)
B16: MYT0514 (antibody, V domains shown)
VH: B5 VH with H26G, W102H
VL: B5 VL
notes: IgG; gemtuzumab VH variant #33 (W102H)
B17: MYT0489 (antibody, V domains shown)
VH: B5 VH with H26G, N33H
VL: B5 VL
notes: IgG; gemtuzumab VH variant #8 (N33H)
B18: MYT0487 (antibody, V domains shown)
VH: B5 VH with H26G, D31H
VL: B5 VL
notes: IgG; gemtuzumab VH variant #6 (D31H)
B19: MYT0506 (antibody, V domains shown)
VH: B5 VH with H26G, F64H
VL: B5 VL
notes: IgG; gemtuzumab VH variant #25 (F64H)
B20: MYT0492 (antibody, V domains shown)
VH: B5 VH with H26G, Y50H
VL: B5 VL
notes: IgG; gemtuzumab VH variant #11 (Y50H)
B21: MYT0485 (antibody, V domains shown)
VH: B5 VH with H26G, I29H
VL: B5 VL
notes: IgG; gemtuzumab VH variant #4 (I29H)
B22: MYT0500 (antibody, V domains shown)
VH: B5 VH with H26G, T58H
VL: B5 VL
notes: IgG; gemtuzumab VH variant #19 (T58H)
B23: MYT0505 (antibody, V domains shown)
VH: B5 VH with H26G, K63H
VL: B5 VL
notes: IgG; gemtuzumab VH variant #24 (K63H)
B24: MYT0486 (antibody, V domains shown)
VH: B5 VH with H26G, T30H
VL: B5 VL
notes: IgG; gemtuzumab VH variant #5 (T30H)
B25: MYT0516 (antibody, V domains shown)
VH: B5 VH with H26G, A104H
VL: B5 VL
notes: IgG; gemtuzumab VH variant #35 (A104H)
B26: MYT0501 (antibody, V domains shown)
VH: B5 VH with H26G, D59H
VL: B5 VL
notes: IgG; gemtuzumab VH variant #20 (D59H)
B27: MYT0503 (antibody, V domains shown)
VH: B5 VH with H26G, N61H
VL: B5 VL
notes: IgG; gemtuzumab VH variant #22 (N61H)
B28: MYT0493 (antibody, V domains shown)
VH: B5 VH with H26G, I51H
VL: B5 VL
notes: IgG; gemtuzumab VH variant #12 (I51H)
B29: MYT0498 (antibody, V domains shown)
VH: B5 VH with H26G, G56H
VL: B5 VL
notes: IgG; gemtuzumab VH variant #17 (G56H)
B30: MYT0488 (antibody, V domains shown)
VH: B5 VH with H26G, S32H
VL: B5 VL
notes: IgG; gemtuzumab VH variant #7 (S32H)
B31: MYT0515 (antibody, V domains shown)
VH: B5 VH with H26G, L103H
VL: B5 VL
notes: IgG; gemtuzumab VH variant #34 (L103H)
B32: MYT0512 (antibody, V domains shown)
VH: B5 VH with H26G, N100H
VL: B5 VL
notes: IgG; gemtuzumab VH variant #31 (N100H)
B33: MYT0483 (antibody, V domains shown)
VH: B5 VH with H26G, Y27H
VL: B5 VL
notes: IgG; gemtuzumab VH variant #2 (Y27H)
B34: MYT0496 (antibody, V domains shown)
VH: B5 VH with H26G, Y54H
VL: B5 VL
notes: IgG; gemtuzumab VH variant #15 (Y54H)
B35: MYT0517 (antibody, V domains shown)
VH: B5 VH with H26G, Y105H
VL: B5 VL
notes: IgG; gemtuzumab VH variant #36 (Y105H)

Target: T1, CD33 (Sino Biological, Cat #12238-H08H) (UniProt P20138 18-259)
T1 sequence (P20138 18-259 limits assumed): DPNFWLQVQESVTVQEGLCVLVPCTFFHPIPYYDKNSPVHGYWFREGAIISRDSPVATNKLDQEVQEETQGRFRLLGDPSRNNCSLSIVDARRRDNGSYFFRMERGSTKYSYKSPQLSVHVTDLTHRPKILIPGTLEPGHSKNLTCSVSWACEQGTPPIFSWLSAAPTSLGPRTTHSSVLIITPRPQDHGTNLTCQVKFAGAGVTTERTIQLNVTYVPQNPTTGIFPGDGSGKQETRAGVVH
Assay: BLI, IgG captured on anti-human Fc sensor, pH 7.4 and pH 5.4

| Binder | binding result |
| --- | --- |
| B1 | no binding (tested: 50 nM CD33) |
| B2 | no binding (tested: 50 nM CD33) |
| B3 | no binding (tested: 50 nM CD33) |
| B4 | no binding (tested: 50 nM CD33) |

Target: T1, CD33 (Sino Biological, Cat #12238-H08H)
Assay: BLI, IgG captured on anti-human Fc sensor, 50 nM CD33, pH 7.4 vs pH 5.0
From the text: Multiple CD33-binding monoclonal antibodies have been described in the literature and can be used as a template for engineering pH-dependent binding (Hamann P R et al (2002) “Gemtuzumab ozogamicin, a potent and selective anti-CD33 antibody-calicheamicin conjugate for treatment of acute myeloid leukemia.” Bioconjug Chem 13(1):47-58). Gemtuzumab (Heavy chain SEQ ID NO: 1, Light chain SEQ ID NO: 2) was selected as a CD33-binding monoclonal antibody for pH engineering via histidine scanning. Briefly, CDRs in the heavy chain were identified using the methods described by Kabat et al (Kabat et al. (1992) Sequences of Proteins of Immunological Interest, DIANE publishing) and IMGT (Lefranc M P (1999) “The IMGT unique numbering for Immunoglobulins, T cell receptors and Ig-like domains” The Immunologist 7, 132-136), and for each CDR, residues falling under either or both Kabat and IMGT CDR definitions were called as CDR residues. To generate pH-dependent sequence variants, individual amino acid residues within the heavy chain CDRs were systematically substituted with a histidine, one at a time (MYT0482-MYT0517). In cases where the starting CDR residue was a histidine, it was mutated to an alanine. Antibody variants with only one histidine or alanine mutation in a heavy chain CDR were generated by co-transfection of Expi293 cells with a) one heavy chain sequence variant, and b) the corresponding starting ABPC light chain using methods known to the art. After allowing for four days of protein expression, cell culture supernatants were collected, quantified by SDS-PAGE analysis, (FIG. 1), and the pH dependence of the variant was evaluated using biolayer interferometry (BLI) on an Octet RED 384 instrument. Briefly, cell culture supernatants were normalized to an antibody expression level of 25 μg/mL, and captured on an anti-human Fc sensor (Forte Bio). A baseline was established using 1×PBST (50 mM Potassium Phosphate Buffer+150 mM NaCl+0.05% Tween 20) pH 7.4, and the sensor was associated with 50 nM of CD33 (Sino Biological, Cat #12238) in 1×PBST pH 7.4 for 120 sec to generate an association curve. In the dissociation phase, the antibody-antigen complex on the sensor was exposed to 1×PBST pH 7.4 for 300-600 sec. Baseline, association, and dissociation were repeated using 1×MES (100 mM MES Buffer+150 mM NaCl+0.05% Tween 20) pH 5.0 throughout in a separate condition.

| Binder | binding result |
| --- | --- |
| B5 | binds |
| B6 | binds |
| B7 | binds |
| B8 | binds |
| B9 | binds |
| B10 | binds |
| B11 | binds |
| B12 | binds |
| B13 | binds |
| B14 | binds |
| B15 | binds |
| B16 | binds |
| B17 | binds |
| B18 | binds |
| B19 | binds |
| B20 | binds |

| Binder | binding result |
| --- | --- |
| B21 | binds |
| B22 | binds |
| B23 | binds |
| B24 | binds |
| B25 | binds |
| B26 | binds |
| B27 | binds |
| B28 | binds |
| B29 | binds |
| B30 | binds |
| B31 | binds |
| B32 | binds |
| B33 | binds |
| B34 | binds |
| B35 | binds |
